Reference: article PMC4643928

Experiments:
Test in all cases: fluorescence anisotropy
Conditions in all cases: FA: 20 mM Tris-HCl pH 7.5, 70 mM KCl, 1 mM MgCl2, 10% glycerol, 50 nM DNA, EMSA: 20 mM Tris-HCl pH 7.5, 300 mM KCl, 4 mM MgCl2, 5 mM DTT, 1 nM …
[1] = tested on: EcGyrA-CTD(ΔT) (Escherichia coli)
[2] = tested on: MBP-PfGyrA-CTD (Plasmodium falciparum)
[3] = tested on: MBP-PfGyrA-CTD(ΔN) (Plasmodium falciparum)

## 37-bp dsDNA
[1]
  Kd: 1110 nM
[2]
  Kd: 205 nM
[3]
  Kd: 222 nM
